Measured values taken from the DeepSol protein solubility set.

assay: soluble on expression in E. coli; label from the status in PepcDB or PDB records

Sequence | soluble on expression in E. coli
MSLENIEKIEVRGIRASNKANINEKRFSNAVVDAVTAEDIGKFPDSDVGQALGRVPGVTVGRTFGQGSSVSIRGTDPLMTLTTLNGQNVASTGWYDQMNVDRSFNYSMLPSELIGGMEVYKSTQANLVEGGIGGTVIVKTRKPLDMDANSVFASVKGEYGSVNEDVAPELSGLYSWKNDDETFGVLLAGSYIDREYLRTGTEADLDWGGRSSVQPSSFLQEQERTALDATVQFRPTDNLEFGAHVLSLKLGADSIGANMYIETDTNWGEGASHCKQFNAAGVCTLSVTPESDPSNVFFQNWARKGEMTSDTFELNADYKGDGFAISGVAGKTKAEGGTQMSANFGYGWWGDKFGQVKWAGTVDATGKQIDINGRDMGFTQDQLDTTVGTSTWTGIKGPNSDEETYLQLDVDFDLDFGVINKFETGVRYTQHEFEKSEYRAIYDPAKKNEFKTSDLYSGTMKLGYDGWTIPKADLDAMINATESLVDQFAYSRSAYGLIEEDNFSMYGMFSFDGEGFRGNFGLRYIQTDVTSSGHIIDNSPADILGVNQGWSEEIHSISDSYSDVLPSFNISFDLAPDLILRMSAGQAITRPNYDNLFLSTSTGYPDDRRGNEEITYGNPGLKPMKSSQADLSLEYYYGDGNLVSATYFIKDISNFIVATTQYNQQIGVVNNDLETPADNWTVNNYENAGGGEIDGIELQLNHAFENGFGVNANYTYADGTAPAEVYTDNIGMFTESSKHSANLVGYWENDDFSARAAYNWRSEYMVREYGKYYGNRMHDAFGTLDVTLGWNVTEAIALRLEIVNLTAEDDVQYGAAGVGTEVKPALQDDFPAWSFKGETTYKLGASFVFEGHHHHHH | not soluble
MSLENIMTLPKIKQVRAWFTGGATAEKGAGGGDYHDQGANHWIDDHIATPMSKYRDYEQLRQSFGINVLGTLVVEVEAENGQTGFAVSTAGEMGCFIVEKHLNRFIEGKCVSDIKLIHDQMLNATLYYSGSGGLVMNTISCVDLALWDLFGKVVGLPVYKLLGGAVRDEIQFYATGARPDLAKEMGFIGGKMPTHWGPHDGDAGIRKDAAMVADMREKCGEDFWLMLDCWMSQDVNYATKLAHACAPYNLKWIEECLPPQQYEGYRELKRNAPVGMMVTSGEHHGTLQSFRTLSETGIDIMQPDVGWCGGLTTLVEIAAIAKSRGQLVVPHGSSVYSHHAVITFTNTPFSEFLMTSPDCSTMRPQFDPILLNEPVPVNGRIHKSVLDKPGFGVELNRDCNLKRPYSHEGHHHHHH | soluble
MSLENISQKYSCSIVPLAEKKIFSVNDGLNVILKSLEDTKAEDIVSIDIQGKSSLADYMVIASAHSQRHVSSVADHLLRTWKDSGYGRASVEGLTEGNWVLIDTGDIIIHLFRPEIRLFYNLEKMWLTPDLNNTKLALFGDH | not soluble
MSLENKIIFVAGACGRIGKALCEKILLSKGIPILADINKECLNKLQENLETNFKTKLLSLELDITKQESLQTALQKSQERYGKIDAFVNSSYPFGKDWGKTPYYELKYEQICESLNLHLAGFMLAAQEFVKFFKQQGYGNIINLSSIMGVYAPKFENYEGTSMQSSLEYSVIKAGINHMSSWLAKELFNQNIRVNTLASGGILDNQNELFLKAYRKCCASKGMLDADDICGTLVFLLSDESKFITGQTLVVDDGWGLEGHHHHHH | soluble
MSLENLARFLSTTLKQLRQQRGWSLSRLAEATGVSKAMLGQIERNESSPTVATLWKIATGLNVPFSTFISPPQSATPSVYDPQQQAMVITSLFPYDPQLCFEHFSIQMASGAISESTPHEKGVIEHVVVIDGQLDLCVDGEWQTLNCGEGVRFAADVTHIYRNGGEQTVHFHSLIHYPRSEGGSHHHHHH | soluble
MSLENLKNIQPREDFNWEEFEAGGVHAAVSRQEQEAAYDKTLNTIKEKEVVMGRVTAINKREVVINVGYKSEGVVPATEFRYNPELKVGDEVEVYIENQEDKKGQLVLSHRKARAARSWERVNEALEKDEIVKGYVKCRTKGGMIVDVFGIEAFLPGSQIDVRPIRDYDAFVEKTMEFKIVKINQEYKNVVVSHKVLIEAELEQQKKEIIGKLEKGQVLEGIVKNITSYGVFIDLGGVDGLIHITDLSWGRVAHPEEIVQLDQKINVVILDFDEDRKRIALGLKQLMPHPWDALDSELKVGDKVKGKVVVMADYGAFVEIAQGVEGLIHVSEMSWTQHLRSAQDFLHVGDEVEAVILTLDREERKMSLGLKQLKPDPWADIETRFPVGSRHHARVRNFTNFGVFVEIEEGVDGLIHISDLSWTKKIKHPSEFTEVGADIEVQVIEIDKENRRLSLGHKQLEENPWDVFETVFTVGSIHEGTVIEVMDKGAVVSLPYGVEGFATPKHMVKEDGSQAVLEEKLPFKVIEFNKDAKRIIVSHSRVFEDEQKMAQREANAERKAEAKAAQKEAAAEAANPAQAVEKATLGDLGELAALKEKLSENEGHHHHHH | soluble
MSLEPVFQLRKELNVFASEEGGATEDISSYAATADSSGITEWNTSDKFTNEMTLTENAKYTVSQLAPNLSFLPEQATDLTGAVDYYSGNALCNDRENLYIWPFNSPQRRLACIRIPLHEEHEVLSGAPLCCFTWPSAGEESEQTKSAGVLIVHANSGLVQFYEDIHTINSVSTLISKSRVIQLDLRFRDREHATDVVNAEPSGILVATSFGRLLLLTIRDSSGKPCLKLRQQLIKSQVGFFSGAMNTFKDIVAIKPSLITGKGERLLLTITRGGELKIWNVSATMSSYKRVEVNVYQQILESLQELYPFAYGSLQILDLNPLPSDPYSLLVLSSISDGKETYYILTAIKVEESSFSIFSVYRLNTYTKANDKKPRLFIAGDLENGEQPIEPQNVPVYLLFEDAVVITQAFTQLDSNYPLRKKWEDLVSLKEDSMVLGHGNDEKALYLINGNRGVVKIEAKMEPSEDYRFVKSHIDQAVYFSEGHHHHHH | soluble
MSLERAKNSDLLRESLTTEELLLISNFAKKKGADSVFFKIIEKLDLKFRLSSFGLEVKNFLMKSKLTGDELTKLTPEILKNKTYENKKFRAYNIHIPSAKTFIGRANSYLDYISKIKDKLVGLGFQEFDGPLVETEFFNNDALFMPQFHPSRDIKDVYYISDPSMQESLPEPYFSNVKLAHETGYATGSRGWRYSFSEDLSKRLVLRTHGTVLSAKQLINAKNPSRYFGVIRCFRYDQVDATHGVDFYQTEGIVIEDGVSIKTLLGLLEIFAKELAGATEIKYVPAYFPFTEPSIEIHVKHPVLGWFELGGSGIFRPEVTKPLGIDLPVIAWGIGIDRMALMHLGLNDLRDLFTYDIGDVILRRGKIDAKVRNEGHHHHHH | not soluble
MSLETLRIANRMLGYAAYEWRLSSLDGQKVMSSSGICLEVDTCLADERRYVSGENRPEMAIICSGIDVDQHVNKSVNAWLREAYNRGIAIGSLCTAAHILAQAGLLNGKRCAIHWENLPGFSEAFPQVEVYADLFEVDSNIYTCAGGTASLDMMLSLIGQDFGENLVNRVCEQQLTDRVREGHHHHHH | not soluble
MSLETQWTRMTADEAAEIIQHNDMVAFSGFTPAGSPKALPTAIARRANEQHEAKKPYQIRLLTGASISAAADDVLSDADAVSWRAPYQTSSGLRKKINQGAVSFVDLHLSEVAQMVNYGFFGDIDVAVIEASALAPDGRVWLTSGIGNAPTWLLRAKKVIIELNHYHDPRVAELADIVIPGAPPRRNSVSIFHAMDRVGTRYVQIDPKKIVAVVETNLPDAGNMLDKQNPMCQQIADNVVTFLLQEMAHGRIPPEFLPLQSGVGNINNAVMARLGENPEIPPFMMYSEVLQESVVHLLETGKISGASASSLTISADSLRKIYDNMDYFASRIVLRPQEISNNPEIIRRLGVIALNVGLEFDIYGHANSTHVAGVDLMNGIGGSGDFERNAYLSIFMAPSIAKEGKISTVVPMCSHVDHNEHSVKVIITEQGIADLRGLSPLQRARTIIDNCAHPMYRDYLHRYLENAPGGHIHHDLSHVFDLHRNLIATGSMLGEGHHHHHH | soluble
MSLEYKVEDVSPVKKKVNVTVPVEEVDAALGAAIAMYRTSVNLDGFRKGKVPASIVENRFRKEIYAEATQDLVNVHINEIVTSLAVSPLSRIDFDGGELERGKEFSYTISFEVMPQFDLPDYEGFAVEQEKAVVDEKEVDEVIARIRRNMAELVPVAETRPGADGDVVVLDFAAFENGEPIEGVSAENFQLSLGEKQSLEDFENLVKTIPAGQEAEGPITFPDDFLNPDFAGKTVTMKVKVHAVKERRLPEIDDALAQKAGGFESMEKMRETVVTSYMQSREQLHKATAQKSMLDKLLKMVDFALPESMVDMYVGNLIEDMRVKMERQGRGLESLGKTPEQLREQVLPEAQQIARSQIFLLAAGRKEAVEVSEQEVDGQLQQLAMRSGQDFDTLKDYYVRNGLIFNLRDRLIADKAMDAIYAKANVTMVDPAPAEGHHHHHH | soluble
